In publication PMC9770967, “Native holdup (nHU) to measure binding affinities from cell extracts” (Science Advances, 2022):

Legend:
SNX27_PDZ [1] = assay: nHU-MS, SNX27_PDZ bait, total Jurkat extracts, series 1; format: binding, human; settings: for pKapp_HU_not_filtered: SNX27 bait, not filtered for significance; for FC_HU: SNX27 vs MBP control
Procedure: The empty His6-AviTag-MBP-TEV vector was used to produce biotinylated MBP for control experiments. Proteins were coexpressed with BirA biotin ligase (PET21a-BirA, Addgene, no. 20857) in Escherichia coli BL21(DE3) cells. At isopropyl-β-D-thiogalactopyranoside (IPTG) induction (1 mM IPTG at 18°C overnight), 50 μM biotin was added to the media. Harvested cells were lysed in a buffer containing 50 mM tris (pH 7.5), 150 to 300 mM NaCl, 50 μM biotin, 2 mM β-mercaptoethanol, cOmplete EDTA-free protease inhibitor cocktail (Roche, Basel, Switzerland), 1% Triton X-100, and trace amount of deoxyribonuclease, ribonuclease, and lysozyme. Lysates were frozen at −20°C before further purification steps. Lysates were sonicated and centrifuged for clarification. Expressed proteins were captured on in-house prepacked Ni-IDA (Protino Ni-IDA Resin, Macherey-Nagel, Duren, Germany) columns and were washed with at least 10 column volumes of cold wash buffer [50 mM tris (pH 7.5), 150 mM NaCl, and 2 mM β-mercaptoethanol] before elution with 250 mM imidazole. The Ni elution was collected directly on a preequilibrated amylose column (amylose high flow resin, New England Biolabs, Ipswich, MA). Amylose column was washed with 5 column volumes of cold wash buffer before fractionated elution in a buffer containing 25 mM Hepes (pH 7.5), 150 mM NaCl, 1 mM TCEP, 10% glycerol, 5 mM maltose, and cOmplete EDTA-free protease inhibitor cocktail. The concentration of proteins was determined by their ultraviolet absorption at 280 nm before aliquots were snap-frozen in liquid nitrogen and stored at −80°C.
For saturating streptavidin resin with biotinylated peptides or biotin, 50 μl of streptavidin resin was mixed with biotin or peptide at 40 to 60 μM concentration in 6 to 6.5 resin volume for 60 min. To saturate streptavidin resin with biotinylated proteins, 50 μl of streptavidin resin (Streptavidin Sepharose High Performance, Cytiva) was mixed with biotinylated MBP or MBP-PDZ at 40 to 50 μM concentration in 20× resin volume for 60 min. After saturation, resins were washed a single time [10 resin volume, holdup buffer: 50 mM tris (pH 7.5), 300 mM NaCl, and 1 mM TCEP, 0.22-μm filtered] and were depleted with biotin (10 resin volume, 10 min, holdup buffer supplemented with 100 μM biotin). Last, resins were washed two times (10 resin volume, holdup buffer).
For single-point nHU experiments carried out at ~10 μM bait concentration, 50 μl of saturated streptavidin resin was mixed with 200 μl of cell lysate (2 mg/ml). Titration experiments were carried out by mixing control and bait-saturated resin and keeping the total resin volume constant; e.g., ~5 μM bait concentration can be achieved by mixing 25 μl of bait-saturated streptavidin resin with 25 μl of control resin and 200 μl of cell lysate (2 mg/ml). Control and bait-saturated resins were prepared in larger amounts, and a serial dilution was prepared with these presaturated resins to achieve different resin ratios.
Unless specified elswhere, the nHU mixture was incubated at 4°C for 2 hours. After the incubation ended, the resin was separated from the supernatant by a brief centrifugation (15 s, 2000 g). Then, half of the supernatant was removed by pipetting without any delay to avoid any resin contamination; e.g., 100 μl of supernatant is collected if 200 μl of cell lysate was used as analyte. Alternatively, the supernatant can be centrifuged an additional time to clarify it further, removing any possible resin contamination. In principle, the separation of the supernatant should be as fast as possible since any delay can perturb the equilibrium. […] Alternatively, the resin can be separated from the supernatant using filter plates (e.g., various products of Millipore, Burlington, MA) or spin columns (e.g., Pierce spin cups—cellulose acetate filter from Thermo Fisher Scientific, Waltham, MA) to achieve faster separation. […]

SNX27_PDZ [2] = assay: AP-MS control pull-down on leftover resin, SNX27_PDZ bait, total Jurkat extracts; format: binding, human; settings: for FC_AP: SNX27 vs MBP
Procedure: Leftover beads from nHU-MS experiments were washed three times immediately after the separation of the supernatant [10 resin volume in buffer containing 50 mM tris (pH 8.5), 150 mM NaCl, 1% Triton X-100, 10× cOmplete EDTA-free protease inhibitor cocktail, 2 mM EDTA, and 1 mM TCEP]. Then, the beads were washed two times [10 resin volume buffer containing 50 mM tris (pH 8.5), 150 mM NaCl, and 1 mM TCEP]. Last, captured protein was eluted from the resin in two steps, and the eluted fractions were pooled. For each elution, the beads were incubated for 30 min with three resin volume buffer containing 20 mM tris (pH 8.5), 100 mM NaCl, 500 μM TCEP, and 8 M urea. Between each step, the beads were separated by mild centrifugation, and the supernatant was removed by gentle pipetting.
The nHU samples were precipitated with trichloroacetic acid (TCA) 20% overnight at 4°C and centrifuged at 14,000 rpm for 10 min at 4°C. The protein pellets were washed twice with 1 ml of cold acetone and air-dried. The protein extracts were solubilized in 8 M urea, reduced with 5 mM TCEP for 30 min, and alkylated with 10 mM iodoacetamide for 30 min in the dark. Double digestion was performed at 37°C with 500 ng of endoproteinase Lys-C (Wako, Richmond, USA) for 4 hours, followed by fourfold dilution and an overnight digestion with 500 ng of trypsin (Promega, Charbonnieres les Bains, France). Peptide mixtures were then desalted on a C18 spin-column and dried on a speed vacuum.
Samples were analyzed using an Ultimate 3000 nano-RSLC coupled in line via a nano-electrospray ionization source, with an LTQ-Orbitrap ELITE mass spectrometer (Thermo Fisher Scientific, San Jose, CA) or with the Orbitrap Exploris 480 mass spectrometer (Thermo Fisher Scientific, Bremen, Germany) equipped with a high field asymmetric ion mobility spectrometry (FAIMS) module. Peptide mixtures were injected in 0.1% trifluoroacetic acid on a C18 Acclaim PepMap100 trap column [75 μm inner diameter (ID) × 2 cm, 3 μm, 100 Å, Thermo Fisher Scientific] for 3 min at 5 μl/min with 2% acetonitrile (ACN) and 0.1% formic acid (FA) in H2O and then separated on a C18 Acclaim PepMap100 nano-column (75 μm ID × 50 cm, 2.6 μm, 150 Å, Thermo Fisher Scientific) at 300 nl/min and 40°C with a 90-min linear gradient from 5 to 30% buffer B (A: 0.1% FA in H2O/B: 80% ACN, 0.1% FA in H2O) and regeneration at 5% B. Spray voltage was set to 2.1 kV and heated capillary temperature was set to 280°C.
For the Orbitrap Elite, the mass spectrometer was operated in positive ionization mode in data-dependent mode with survey scans from mass/charge ratio (m/z) 350 to 1500 acquired in the Orbitrap at a resolution of 120,000 at m/z 400. The 20 most intense peaks from survey scans were selected for further fragmentation in the linear ion trap with an isolation window of 2.0 Da and were fragmented by collision-induced dissociation (CID) with a normalized collision energy of 35% (TOP 20 CID method). Unassigned and single-charged states were excluded from fragmentation. The ion target value for the survey scans (in the Orbitrap) and the MS2 mode (in the linear ion trap) were set to 1E6 and 5E3, respectively, and the maximum injection time was set to 100 ms for both scan modes. Dynamic exclusion was set to 20 s after one repeat count with mass width at ±10 parts per million (ppm).
Proteins were identified by database search using SequestHT (Thermo Fisher Scientific) with Proteome Discoverer 2.4 software (PD2.4, Thermo Fisher Scientific) on the human FASTA database downloaded from UniProt (reviewed, release 2021_06_03, 20380 entries, https://uniprot.org/, complemented with sequences of likely contaminants, such as MBP, streptavidin, or trypsin). Precursor and fragment mass tolerances were set at 7 ppm and 0.6 Da, respectively, and up to two missed cleavages were allowed. […]

[3] = nHU-MS, SNX27/MBP, total Jurkat extract, sheet "SNX27&Jurkat"
[4] = nHU-MS, SNX27 bait vs MBP control, total Jurkat extract, sheet "SNX27&Jurkat"
[5] = nHU-MS, total Jurkat extract, sheet "SNX27&Jurkat"
[6] = AP-MS control pull-down, SNX27/MBP, total Jurkat extract
[7] = AP-MS control pull-down, total Jurkat extract
[8] = Jurkat, series 1, leftover resin, n = 6

| Molecule | Ratio_HU (SNX27_PDZ [1]; [3]) | BI_HU (SNX27_PDZ [1]; [4]) | pKapp_HU_not_filtered (SNX27_PDZ [1]; nHU-MS, total Jurkat extract) | FC_HU (SNX27_PDZ [1]; [5]) | Ratio_AP (SNX27_PDZ [2]; [6]) | FC_AP (SNX27_PDZ [2]; [7]) | BI_HU (SNX27_PDZ [1]; Jurkat, series 1, n = 6) | FC_HU (log2 fold change) (SNX27_PDZ [1]; Jurkat, series 1, n = 6) | Ratio_HU (SNX27_PDZ [1]; Jurkat, series 1, n = 6) | pKapp_significant_binders_HU (SNX27_PDZ [1]; apparent, Eq. 2, Jurkat, series 1, significant binders (1 σ, P < 0.05)) | FC_AP (log2 fold change) (SNX27_PDZ [2]; [8]) | Ratio_AP (SNX27_PDZ [2]; [8]) | BINDER_AP (SNX27_PDZ [2]; AP-MS control pull-down, total Jurkat extract, BINDS / DOES NOT BIND) |
| --- | --- | --- | --- | --- | --- | --- | --- | --- | --- | --- | --- | --- | --- |
| RAE1 (protein, UniProt P78406 1-368, looked up) mRNA export factor RAE1: MSLFGTTSGFGTSGTSMFGSATTDNHNPMKDIEVTSSPDDSIGCLSFSPPTLPGNFLIAGSWANDVRCWEVQDSGQTIPKAQQMHTGPVLDVCWSDDGSKVFTASCDKTAKMWDLSSNQAIQIAQHDAPVKTIHWIKAPNYSCVMTGSWDKTLKFWDTRSSNPMMVLQLPERCYCADVIYPMAVVATAERGLIVYQLENQPSEFRRIESPLKHQHRCVAIFKDKQNKPTGFALGSIEGRVAIHYINPPNPAKDNFTFKCHRSNGTNTSAPQDIYAVNGIAFHPVHGTLATVGSDGRFSFWDKDARTKLKTSEQLDQPISACCFNHNGNIFAYASSYDWSKGHEFYNPQKKNYIFLRNAAEELKPRNKK | 0.6404 | 0.3596 | 4.751 | -0.643 | 3.111 | 1.637 |  |  |  |  |  |  |  |
| DARS1: Aspartate--tRNA ligase, cytoplasmic (protein, UniProt P14868 1-501, looked up) Aspartate--tRNA ligase, …: MPSASASRKSQEKPREIMDAAEDYAKERYGISSMIQSQEKPDRVLVRVRDLTIQKADEVVWVRARVHTSRAKGKQCFLVLRQQQFNVQALVAVGDHASKQMVKFAANINKESIVDVEGVVRKVNQKIGSCTQQDVELHVQKIYVISLAEPRLPLQLDDAVRPEAEGEEEGRATVNQDTRLDNRVIDLRTSTSQAVFRLQSGICHLFRETLINKGFVEIQTPKIISAASEGGANVFTVSYFKNNAYLAQSPQLYKQMCICADFEKVFSIGPVFRAEDSNTHRHLTEFVGLDIEMAFNYHYHEVMEEIADTMVQIFKGLQERFQTEIQTVNKQFPCEPFKFLEPTLRLEYCEALAMLREAGVEMGDEDDLSTPNEKLLGHLVKEKYDTDFYILDKYPLAVRPFYTMPDPRNPKQSNSYDMFMRGEEILSGAQRIHDPQLLTERALHHGIDLEKIKAYIDSFRFGAPPHAGGGIGLERVTMLFLGLHNVRQTSMFPRDPKRLTP |  |  |  |  |  |  | 0.3534 | -0.629 | 0.6466 | 4.739 | 3.29 | 9.779 |  |
| BYSL (protein, UniProt Q13895 1-437, looked up) Bystin: MPKFKAARGVGGQEKHAPLADQILAGNAVRAGVREKRRGRGTGEAEEEYVGPRLSRRILQQARQQQEELEAEHGTGDKPAAPRERTTRLGPRMPQDGSDDEDEEWPTLEKAATMTAAGHHAEVVVDPEDERAIEMFMNKNPPARRTLADIIMEKLTEKQTEVETVMSEVSGFPMPQLDPRVLEVYRGVREVLSKYRSGKLPKAFKIIPALSNWEQILYVTEPEAWTAAAMYQATRIFASNLKERMAQRFYNLVLLPRVRDDVAEYKRLNFHLYMALKKALFKPGAWFKGILIPLCESGTCTLREAIIVGSIITKCSIPVLHSSAAMLKIAEMEYSGANSIFLRLLLDKKYALPYRVLDALVFHFLGFRTEKRELPVLWHQCLLTLVQRYKADLATDQKEALLELLRLQPHPQLSPEIRRELQSAVPRDVEDVPITVE | 0.6423 | 0.3577 | 4.747 | -0.6386 | 9.097 | 3.185 |  |  |  |  |  |  | DOES NOT BIND |
